pKd: −log10 of the molar value.
Assays:
[1] = biological target: rPcrV protein (recombinant Pseudomonas PcrV) (Pseudomonas aeruginosa); experiment: SPR (Bio-Rad ProteOn XPR36); antibody captured, rPcrV as analyte; table under the sensorgram
[2] = biological target: rPcrV protein (recombinant Pseudomonas PcrV) (Pseudomonas aeruginosa); experiment: SPR (Bio-Rad ProteOn XPR36); antibody captured on GLC sensor chip with anti-human IgG, rPcrV injected at multiple concentrations
[3] = biological target: rPcrV protein (recombinant Pseudomonas PcrV) (Pseudomonas aeruginosa); experiment: SPR (Bio-Rad ProteOn XPR36); antibody captured by anti-human IgG on GLC chip, rPcrV injected

Work on “V2L2-MD (germlined lead optimized V2L2) (antibody)” yielded a pKd [1] of 10.34, a koff [1] of 4.03e-05 s⁻¹ and a kon [1] of 884000 M⁻¹ s⁻¹. The pKd [2] was 10.34, the koff [2] was 4.03e-05 s⁻¹ and the kon [2] was 884000 M⁻¹ s⁻¹. The fold increase in Kd over V2L2-GL [3] was 2 to 3 fold.
